The supplement of paper PMC9732359
± gives the uncertainty stated by the source.

Test: protein stability index of a GFP-peptide fusion (yeast GPS) (PSI 1-4); higher = more stable; sorted into four equal gates, so the index is relative within each strain
Outline: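 The protein stability index combines read frequencies across sorting gates, each weighted by its gate number and then summed. To obtain those frequencies, a pooled yeast library of GFP fusions to tiled 17-residue yeast protein peptides, on a plasmid also expressing Cherry, was grown to mid-log phase in leucine-free medium. The cells were sorted into four equal gates by GFP/Cherry ratio before plasmid amplification by PCR and Illumina sequencing.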

Sequence: AQEDVPYLLPYILEAEA [QCR7]
- protein stability index (doa10∆): 2.02 ± 0.048
- protein stability index (pdr5∆): 1.79 ± 0.046
- protein stability index (san1∆): 2.03 ± 0.067
- protein stability index (ubr1∆): 1.86 ± 0.038

Sequence: AQFRVPRYHSKNSFQQA [SWP82]
- protein stability index (doa10∆): 2.5 ± 0.075
- protein stability index (pdr5∆): 2.57 ± 0.065
- protein stability index (san1∆): 2.37 ± 0.083
- protein stability index (ubr1∆): 2.62 ± 0.047

Sequence: AQKYASIVGVDLSSAAS [FAS2]
- protein stability index (doa10∆): 2.13 ± 0.069
- protein stability index (pdr5∆): 2.21 ± 0.082
- protein stability index (san1∆): 1.66 ± 0.12
- protein stability index (ubr1∆): 1.75 ± 0.062

Sequence: AQNQGMFGAKPAGTSLF [YGL172W/NUP49]
- protein stability index (doa10∆): 2.32 ± 0.054
- protein stability index (pdr5∆): 2.36 ± 0.064
- protein stability index (san1∆): 2.34 ± 0.075
- protein stability index (ubr1∆): 2.37 ± 0.04

Sequence: AQNVPMNIIQQQQQQNT [GAL11]
- protein stability index (doa10∆): 2.48 ± 0.043
- protein stability index (pdr5∆): 2.6 ± 0.042
- protein stability index (san1∆): 2.45 ± 0.069
- protein stability index (ubr1∆): 2.46 ± 0.029

Sequence: AQSRNVEIEKRILKLGT [YGR119C/NUP57]
- protein stability index (doa10∆): 3.33 ± 0.082
- protein stability index (pdr5∆): 3.15 ± 0.071
- protein stability index (san1∆): 3.33 ± 0.077
- protein stability index (ubr1∆): 3.34 ± 0.078

Sequence: AQSSHIRAIRKVISEIL [RPS1A]
- protein stability index (doa10∆): 1.55 ± 0.017
- protein stability index (pdr5∆): 1.624 ± 0.015
- protein stability index (san1∆): 1.62 ± 0.031
- protein stability index (ubr1∆): 1.748 ± 0.015

Sequence: AQSVGCRVDFKNPHDII [RPL12A]
- protein stability index (doa10∆): 2.15 ± 0.061
- protein stability index (pdr5∆): 2.4 ± 0.078
- protein stability index (san1∆): 2.23 ± 0.12
- protein stability index (ubr1∆): 2.32 ± 0.1

Sequence: AQYCYKNGLYQEAFKIY [SRP72]
- protein stability index (doa10∆): 2.87 ± 0.075
- protein stability index (pdr5∆): 2.94 ± 0.097
- protein stability index (san1∆): 3.1 ± 0.069
- protein stability index (ubr1∆): 3.25 ± 0.059

Sequence: ARGTIEIVSDVKVVDAG [RPP0]
- protein stability index (doa10∆): 1.61 ± 0.1
- protein stability index (pdr5∆): 2.21 ± 0.07
- protein stability index (san1∆): 1.96 ± 0.15
- protein stability index (ubr1∆): 1.77 ± 0.095

Sequence: ARKELPIFDYIHIDALE [SIR3]
- protein stability index (doa10∆): 2.3 ± 0.053
- protein stability index (pdr5∆): 2.34 ± 0.056
- protein stability index (san1∆): 2.21 ± 0.059
- protein stability index (ubr1∆): 2.5 ± 0.047

Sequence: ARNVQVHQEPYVFNARP [RPS0A]
- protein stability index (doa10∆): 3.01 ± 0.098
- protein stability index (pdr5∆): 3.25 ± 0.063
- protein stability index (san1∆): 2.99 ± 0.051
- protein stability index (ubr1∆): 3.06 ± 0.063

Sequence: ARQQVAQQLRNQQQQQQ [GAL11]
- protein stability index (doa10∆): 2.73 ± 0.064
- protein stability index (pdr5∆): 3.2 ± 0.13
- protein stability index (san1∆): 2.85 ± 0.097
- protein stability index (ubr1∆): 2.92 ± 0.076

Sequence: ARRLKNRAARDRRAQRV [RPL19A]
- protein stability index (doa10∆): 2.97 ± 0.14
- protein stability index (pdr5∆): 3.43 ± 0.1
- protein stability index (san1∆): 2.57 ± 0.13
- protein stability index (ubr1∆): 3.17 ± 0.062

Sequence: ARSIDVEKGVNPTKSKE [ECM29]
- protein stability index (doa10∆): 3.32 ± 0.26
- protein stability index (pdr5∆): 3.51 ± 0.24
- protein stability index (ubr1∆): 3.2 ± 0.29

Sequence: ARTATVSKKWAAAGVCE [RPL14B]
- protein stability index (doa10∆): 2.9 ± 0.089
- protein stability index (pdr5∆): 3.21 ± 0.084
- protein stability index (san1∆): 3.58 ± 0.11
- protein stability index (ubr1∆): 2.72 ± 0.066

Sequence: ARTIKATLPYIKQDIPI [RPB2]
- protein stability index (doa10∆): 2.73 ± 0.1
- protein stability index (pdr5∆): 2.3 ± 0.061
- protein stability index (san1∆): 2.26 ± 0.075
- protein stability index (ubr1∆): 2.74 ± 0.072

Sequence: ARYVIATSTKVSVEGVN [RPL6A]
- protein stability index (doa10∆): 1.62 ± 0.051
- protein stability index (pdr5∆): 1.52 ± 0.048
- protein stability index (san1∆): 1.47 ± 0.11
- protein stability index (ubr1∆): 1.27 ± 0.034

Sequence: ASAGSKEGASTNWDDHA [YMR153W/NUP53]
- protein stability index (doa10∆): 3.26 ± 0.13
- protein stability index (pdr5∆): 3.49 ± 0.14
- protein stability index (san1∆): 3.27 ± 0.077
- protein stability index (ubr1∆): 3.42 ± 0.11

Sequence: ASDESLLRYGGAFTIAL [RPN2]
- protein stability index (doa10∆): 3.39 ± 0.099
- protein stability index (pdr5∆): 3.35 ± 0.13
- protein stability index (san1∆): 3.25 ± 0.098
- protein stability index (ubr1∆): 3.34 ± 0.083

Sequence: ASLADVMSIESLVEVVF [FAS1]
- protein stability index (doa10∆): 2.89 ± 0.08
- protein stability index (pdr5∆): 2.18 ± 0.067
- protein stability index (san1∆): 1.78 ± 0.091
- protein stability index (ubr1∆): 2.97 ± 0.062

Sequence: ASLKHDNETKAMLINLI [RPN3]
- protein stability index (doa10∆): 2.85 ± 0.28
- protein stability index (pdr5∆): 3.21 ± 0.27
- protein stability index (san1∆): 2.8 ± 0.13
- protein stability index (ubr1∆): 2.77 ± 0.29

Sequence: ASPSAHTSSSDGNNEIF [RPN4]
- protein stability index (doa10∆): 2.36 ± 0.063
- protein stability index (pdr5∆): 2.73 ± 0.046
- protein stability index (san1∆): 2.61 ± 0.067
- protein stability index (ubr1∆): 3 ± 0.063

Sequence: ASSAVMNRRKIAMPKRR [YLR335W/NUP2]
- protein stability index (doa10∆): 1.19 ± 0.074
- protein stability index (pdr5∆): 1.3 ± 0.071
- protein stability index (san1∆): 1.23 ± 0.2
- protein stability index (ubr1∆): 1.16 ± 0.11

Sequence: ASSPIILEEGSSGMGAF [RPN10]
- protein stability index (doa10∆): 3.04 ± 0.079
- protein stability index (pdr5∆): 3.04 ± 0.083
- protein stability index (san1∆): 2.99 ± 0.089
- protein stability index (ubr1∆): 3.14 ± 0.059

Sequence: ASTGSGKTLAFVIPILI [PRP28]
- protein stability index (doa10∆): 1.47 ± 0.069
- protein stability index (pdr5∆): 1.29 ± 0.079
- protein stability index (san1∆): 1.48 ± 0.17
- protein stability index (ubr1∆): 3.09 ± 0.1

Sequence: ASVGDILKTLERSICAL [YML031W/NDC1]
- protein stability index (doa10∆): 2.12 ± 0.066
- protein stability index (pdr5∆): 2.94 ± 0.088
- protein stability index (san1∆): 2.79 ± 0.086
- protein stability index (ubr1∆): 2.64 ± 0.058

Sequence: ATALQTCAGGRLFNVVV [SMC2]
- protein stability index (doa10∆): 2.63 ± 0.12
- protein stability index (pdr5∆): 2.9 ± 0.13
- protein stability index (san1∆): 3.13 ± 0.15
- protein stability index (ubr1∆): 2.12 ± 0.15

Sequence: ATASAIAATAVASLVLA [RPL4A]
- protein stability index (doa10∆): 2.37 ± 0.1
- protein stability index (pdr5∆): 1.78 ± 0.071
- protein stability index (san1∆): 1.91 ± 0.17
- protein stability index (ubr1∆): 1.88 ± 0.082

Sequence: ATFLLTDIKDTLTKISM [MCD1]
- protein stability index (doa10∆): 3.03 ± 0.13
- protein stability index (pdr5∆): 3.14 ± 0.13
- protein stability index (san1∆): 2.88 ± 0.099
- protein stability index (ubr1∆): 3.17 ± 0.08

Sequence: ATKDNELNVKHVKQCQE [SMC2]
- protein stability index (doa10∆): 2.96 ± 0.1
- protein stability index (pdr5∆): 3.35 ± 0.2
- protein stability index (san1∆): 2.97 ± 0.066
- protein stability index (ubr1∆): 3.32 ± 0.05

Sequence: ATQMTLNTFHFAGVASK [RPO21]
- protein stability index (doa10∆): 1.89 ± 0.11
- protein stability index (pdr5∆): 1.9 ± 0.076
- protein stability index (san1∆): 2 ± 0.22
- protein stability index (ubr1∆): 2.32 ± 0.14

Sequence: ATSVESVDIGVETILSG [FAS2]
- protein stability index (doa10∆): 2.93 ± 0.084
- protein stability index (pdr5∆): 2.9 ± 0.089
- protein stability index (san1∆): 2.13 ± 0.089
- protein stability index (ubr1∆): 3.1 ± 0.069

Sequence: AVDHRRQNRNQEIFDAN [RPL13A]
- protein stability index (doa10∆): 3.15 ± 0.075
- protein stability index (pdr5∆): 3.21 ± 0.058
- protein stability index (san1∆): 3.23 ± 0.044
- protein stability index (ubr1∆): 3.34 ± 0.046

Sequence: AVEQRKKEKLDSGEVDA [DPB4]
- protein stability index (doa10∆): 3.2 ± 0.23
- protein stability index (pdr5∆): 3.21 ± 0.17
- protein stability index (san1∆): 3.36 ± 0.1
- protein stability index (ubr1∆): 3.27 ± 0.1

Sequence: AVFKIVLQPLLPRELPK [SNU114]
- protein stability index (doa10∆): 2.05 ± 0.083
- protein stability index (pdr5∆): 1.76 ± 0.091
- protein stability index (san1∆): 2.05 ± 0.095
- protein stability index (ubr1∆): 2.18 ± 0.074

Sequence: AVHNGGRKHVAALRTVK [RPL9A]
- protein stability index (ubr1∆): 2.88 ± 0.19

Sequence: AVLKKIQSKAVEQGYED [YCG1]
- protein stability index (doa10∆): 3.05 ± 0.12
- protein stability index (pdr5∆): 3.38 ± 0.092
- protein stability index (san1∆): 3.08 ± 0.072
- protein stability index (ubr1∆): 3.07 ± 0.084

Sequence: AVSTIASISLAIGYPTL [RPP0]
- protein stability index (doa10∆): 1.92 ± 0.055
- protein stability index (pdr5∆): 2.12 ± 0.056
- protein stability index (san1∆): 1.53 ± 0.1
- protein stability index (ubr1∆): 2.15 ± 0.049

Sequence: AVSVANGFMHAGTTDNS [RPN2]
- protein stability index (doa10∆): 1.25 ± 0.062
- protein stability index (pdr5∆): 1.4 ± 0.051
- protein stability index (san1∆): 1.17 ± 0.24
- protein stability index (ubr1∆): 1.28 ± 0.067

Sequence: AVVVRGRYAGKKVVIVK [RPL27A]
- protein stability index (doa10∆): 3.13 ± 0.11
- protein stability index (pdr5∆): 3.38 ± 0.067
- protein stability index (san1∆): 3.03 ± 0.074
- protein stability index (ubr1∆): 2.81 ± 0.082

Sequence: AYFMVGAMGLLSSAGAK [RIP1]
- protein stability index (doa10∆): 1.99 ± 0.11
- protein stability index (pdr5∆): 2.51 ± 0.11
- protein stability index (san1∆): 2.06 ± 0.18
- protein stability index (ubr1∆): 2.34 ± 0.091

Sequence: AYGNWFNGLKPLIQNSM [PRP8]
- protein stability index (doa10∆): 2.94 ± 0.063
- protein stability index (pdr5∆): 3.31 ± 0.099
- protein stability index (san1∆): 2.85 ± 0.11
- protein stability index (ubr1∆): 3.13 ± 0.049

Sequence: AYLLLNAAGNTPDATKI [RPP2A]
- protein stability index (doa10∆): 2.2 ± 0.038
- protein stability index (pdr5∆): 2.17 ± 0.036
- protein stability index (san1∆): 2.17 ± 0.051
- protein stability index (ubr1∆): 2.49 ± 0.039

Sequence: AYPGKLICPQYGTENKD [CSL4]
- protein stability index (doa10∆): 1.89 ± 0.073
- protein stability index (pdr5∆): 1.93 ± 0.068
- protein stability index (san1∆): 1.72 ± 0.15
- protein stability index (ubr1∆): 1.9 ± 0.078

Sequence: AYSPKQDEQKHNENENS [RPO21]
- protein stability index (doa10∆): 2.65 ± 0.065
- protein stability index (pdr5∆): 2.49 ± 0.072
- protein stability index (san1∆): 2.57 ± 0.09
- protein stability index (ubr1∆): 2.68 ± 0.061

Sequence: CANKYMTTVSGRDAFHL [RPL10]
- protein stability index (doa10∆): 2.24 ± 0.24
- protein stability index (pdr5∆): 2.64 ± 0.15
- protein stability index (san1∆): 1.74 ± 0.2
- protein stability index (ubr1∆): 1.92 ± 0.1

Sequence: CASIPIAIIKDTSDIIV [RRP46]
- protein stability index (doa10∆): 1.73 ± 0.044
- protein stability index (pdr5∆): 1.88 ± 0.043
- protein stability index (san1∆): 1.75 ± 0.065
- protein stability index (ubr1∆): 1.6 ± 0.04

Sequence: CDVFWVQKDTAIIRLHP [POP1]
- protein stability index (doa10∆): 2.29 ± 0.079
- protein stability index (pdr5∆): 2.62 ± 0.097
- protein stability index (san1∆): 2.5 ± 0.095
- protein stability index (ubr1∆): 2.58 ± 0.079

Sequence: CEKWAASSWAKKIAQRE [RPL14A]
- protein stability index (doa10∆): 2.35 ± 0.089
- protein stability index (pdr5∆): 3.16 ± 0.12
- protein stability index (san1∆): 2.24 ± 0.17
- protein stability index (ubr1∆): 2.06 ± 0.062
